For test [1], the target named is T1, human amylin receptor (amylin 3(a) receptor: human calcitonin receptor plus RAMP-3) (human, UniProt P30988 25-474; O60896 24-148, limits assumed).
T1 construct: whole, on cells; the functional assay (Assay IIa) used the whole cells; also called hAmylin-R; hAmylinR
T1 sequence (looked up) 1: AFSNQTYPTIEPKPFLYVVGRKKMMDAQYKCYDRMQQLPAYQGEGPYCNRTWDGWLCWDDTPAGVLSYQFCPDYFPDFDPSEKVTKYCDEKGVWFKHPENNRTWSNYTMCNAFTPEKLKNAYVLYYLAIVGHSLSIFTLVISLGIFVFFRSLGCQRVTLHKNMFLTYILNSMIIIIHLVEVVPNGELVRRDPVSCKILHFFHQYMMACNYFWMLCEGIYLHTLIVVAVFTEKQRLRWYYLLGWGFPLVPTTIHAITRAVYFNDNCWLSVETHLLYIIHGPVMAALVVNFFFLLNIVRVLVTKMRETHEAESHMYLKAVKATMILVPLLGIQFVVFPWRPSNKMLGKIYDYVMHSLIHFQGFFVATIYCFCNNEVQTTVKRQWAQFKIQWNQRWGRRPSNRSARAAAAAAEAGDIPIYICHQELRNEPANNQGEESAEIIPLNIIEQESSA
T1 sequence (looked up) 2: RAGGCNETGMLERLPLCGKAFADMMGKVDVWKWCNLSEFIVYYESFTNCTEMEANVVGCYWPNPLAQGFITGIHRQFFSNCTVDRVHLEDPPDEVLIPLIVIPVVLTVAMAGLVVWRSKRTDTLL
As to the kind of experiment: SPA competition binding, membranes of Amylin 3(a)/CRE-luc BHK cells, displacement of 125I-rat amylin (Assay V). Summed up:
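SPA beads with BHK Amylin 3(a)/CRE-luc cell membranes (35 ng/μL final) in 50 mM Hepes pH 7.4, 1 mM CaCl2, 5 mM MgCl₂, 0.1% OA, 0.02% Tween20.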

Test [2] deals with T1, human amylin receptor (amylin 3(a) …). Description: cell-based or functional assay.
In test [3] the target is T2, human calcitonin receptor (human, UniProt P30988 25-474).
T2 sequence (looked up): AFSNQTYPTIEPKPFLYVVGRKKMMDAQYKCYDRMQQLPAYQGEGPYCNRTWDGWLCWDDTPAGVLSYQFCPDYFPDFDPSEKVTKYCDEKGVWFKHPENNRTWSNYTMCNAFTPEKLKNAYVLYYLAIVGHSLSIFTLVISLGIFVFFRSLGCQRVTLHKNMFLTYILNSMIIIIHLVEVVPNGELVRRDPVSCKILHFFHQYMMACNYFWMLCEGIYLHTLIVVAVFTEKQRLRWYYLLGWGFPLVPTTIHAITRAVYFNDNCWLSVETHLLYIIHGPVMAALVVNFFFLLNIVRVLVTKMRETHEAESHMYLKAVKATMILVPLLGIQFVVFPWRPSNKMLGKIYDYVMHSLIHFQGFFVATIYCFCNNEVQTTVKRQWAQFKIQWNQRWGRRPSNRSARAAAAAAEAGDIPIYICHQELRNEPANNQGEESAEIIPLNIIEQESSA
As to the kind of experiment: cell-based or functional assay.

Numbered stars: 1 amine (or outer) side, 2 acyl side, 3 side chain; on linkers, the order of the positions; unused ones are H or OH. Bridge positions count the residues as written; N and C are the ends. Side chains are listed from the residue outwards. Ends that are not written are not given here. * marks the point of attachment. C20 diacid = O=C(O)CCCCCCCCCCCCCCCCCCC(=O)*; γGlu = O=C(O)[C@H](CCC(=O)[*:2])N[*:1]

B1: N^α1 N^α1-[(4S)-4-carboxy-4-[[(4S)-4-carboxy-4-(19-carboxynonadecanoylamino)butanoyl]amino]butanoyl]-[Glu14,Arg17,Pro21,Pro27]-h-amylin (peptide)
peptide: {C20 diacid-γGlu-γGlu}-KCNTATCATQRLAEFLRHSSPNFGAIPSSTNVGSNTY-NH2
modifications: disulfide 2-7
SMILES: CC[C@H](C)[C@H](NC(=O)[C@H](C)NC(=O)CNC(=O)[C@H](Cc1ccccc1)NC(=O)[C@H](CC(N)=O)NC(=O)[C@@H]1CCCN1C(=O)[C@H](CO)NC(=O)[C@H](CO)NC(=O)[C@H](Cc1c[nH]cn1)NC(=O)[C@H](CCCNC(=N)N)NC(=O)[C@H](CC(C)C)NC(=O)[C@H](Cc1ccccc1)NC(=O)[C@H](CCC(=O)O)NC(=O)[C@H](C)NC(=O)[C@H](CC(C)C)NC(=O)[C@H](CCCNC(=N)N)NC(=O)[C@H](CCC(N)=O)NC(=O)[C@@H](NC(=O)[C@H](C)NC(=O)[C@@H]1CSSC[C@H](NC(=O)[C@H](CCCCN)NC(=O)CC[C@H](NC(=O)CC[C@H](NC(=O)CCCCCCCCCCCCCCCCCCC(=O)O)C(=O)O)C(=O)O)C(=O)N[C@@H](CC(N)=O)C(=O)N[C@@H]([C@@H](C)O)C(=O)N[C@@H](C)C(=O)N[C@@H]([C@@H](C)O)C(=O)N1)[C@@H](C)O)C(=O)N1CCC[C@H]1C(=O)N[C@@H](CO)C(=O)N[C@@H](CO)C(=O)N[C@H](C(=O)N[C@@H](CC(N)=O)C(=O)N[C@H](C(=O)NCC(=O)N[C@@H](CO)C(=O)N[C@@H](CC(N)=O)C(=O)N[C@H](C(=O)N[C@@H](Cc1ccc(O)cc1)C(N)=O)[C@@H](C)O)C(C)C)[C@@H](C)O
notes: also called compound 15
For orientation: IC50 means the concentration at which inhibition is half-maximal. On to B1, for which the IC50 in test [1] worked out at 0.597 nM. For the same molecule, the “hAmylin-R funct. EC50” value in test [2] worked out at 0.386 nM. Also, in test [3], the “Ratio hCT/hAmylin funct. (hCTR EC50 against hAmylin-R EC50)” value was 8.9 and the “hCTR funct. EC50” value worked out at 3.43 nM.

B2: N^ε1-[(4S)-4-carboxy-4-[[(4S)-4-carboxy-4-(19-carboxynonadecanoylamino)butanoyl]amino]butanoyl]-[Glu14,Arg17,Pro21,Pro27,Pro37]-h-amylin (peptide)
peptide: K([γGlu-γGlu-C20 diacid])CNTATCATQRLAEFLRHSSPNFGAIPSSTNVGSNTP-NH2
modifications: disulfide 2-7; N-terminus assumed
SMILES: CC[C@H](C)[C@H](NC(=O)[C@H](C)NC(=O)CNC(=O)[C@H](Cc1ccccc1)NC(=O)[C@H](CC(N)=O)NC(=O)[C@@H]1CCCN1C(=O)[C@H](CO)NC(=O)[C@H](CO)NC(=O)[C@H](Cc1c[nH]cn1)NC(=O)[C@H](CCCNC(=N)N)NC(=O)[C@H](CC(C)C)NC(=O)[C@H](Cc1ccccc1)NC(=O)[C@H](CCC(=O)O)NC(=O)[C@H](C)NC(=O)[C@H](CC(C)C)NC(=O)[C@H](CCCNC(=N)N)NC(=O)[C@H](CCC(N)=O)NC(=O)[C@@H](NC(=O)[C@H](C)NC(=O)[C@@H]1CSSC[C@H](NC(=O)[C@@H](N)CCCCNC(=O)CC[C@H](NC(=O)CC[C@H](NC(=O)CCCCCCCCCCCCCCCCCCC(=O)O)C(=O)O)C(=O)O)C(=O)N[C@@H](CC(N)=O)C(=O)N[C@@H]([C@@H](C)O)C(=O)N[C@@H](C)C(=O)N[C@@H]([C@@H](C)O)C(=O)N1)[C@@H](C)O)C(=O)N1CCC[C@H]1C(=O)N[C@@H](CO)C(=O)N[C@@H](CO)C(=O)N[C@H](C(=O)N[C@@H](CC(N)=O)C(=O)N[C@H](C(=O)NCC(=O)N[C@@H](CO)C(=O)N[C@@H](CC(N)=O)C(=O)N[C@H](C(=O)N1CCC[C@H]1C(N)=O)[C@@H](C)O)C(C)C)[C@@H](C)O
notes: also called compound 13
For B2, the IC50 in test [1] is 0.264 nM. Besides, the “hAmylin-R funct. EC50” value in test [2] was 0.213 nM. Moreover, in test [3], the “Ratio hCT/hAmylin funct. (hCTR EC50 against hAmylin-R EC50)” value is 2.2 and the “hCTR funct. EC50” value was determined as 0.47 nM.

B3: N^ε1-[(4S)--4-carboxy-4-(19-carboxynonadecanoylamino)butanoyl]-[Glu14,Arg17,Pro21,Pro27,Pro37]-h-amylin (peptide)
peptide: K([γGlu-C20 diacid])CNTATCATQRLAEFLRHSSPNFGAIPSSTNVGSNTP-NH2
modifications: disulfide 2-7; N-terminus assumed
SMILES: CC[C@H](C)[C@H](NC(=O)[C@H](C)NC(=O)CNC(=O)[C@H](Cc1ccccc1)NC(=O)[C@H](CC(N)=O)NC(=O)[C@@H]1CCCN1C(=O)[C@H](CO)NC(=O)[C@H](CO)NC(=O)[C@H](Cc1c[nH]cn1)NC(=O)[C@H](CCCNC(=N)N)NC(=O)[C@H](CC(C)C)NC(=O)[C@H](Cc1ccccc1)NC(=O)[C@H](CCC(=O)O)NC(=O)[C@H](C)NC(=O)[C@H](CC(C)C)NC(=O)[C@H](CCCNC(=N)N)NC(=O)[C@H](CCC(N)=O)NC(=O)[C@@H](NC(=O)[C@H](C)NC(=O)[C@@H]1CSSC[C@H](NC(=O)[C@@H](N)CCCCNC(=O)CC[C@H](NC(=O)CCCCCCCCCCCCCCCCCCC(=O)O)C(=O)O)C(=O)N[C@@H](CC(N)=O)C(=O)N[C@@H]([C@@H](C)O)C(=O)N[C@@H](C)C(=O)N[C@@H]([C@@H](C)O)C(=O)N1)[C@@H](C)O)C(=O)N1CCC[C@H]1C(=O)N[C@@H](CO)C(=O)N[C@@H](CO)C(=O)N[C@H](C(=O)N[C@@H](CC(N)=O)C(=O)N[C@H](C(=O)NCC(=O)N[C@@H](CO)C(=O)N[C@@H](CC(N)=O)C(=O)N[C@H](C(=O)N1CCC[C@H]1C(N)=O)[C@@H](C)O)C(C)C)[C@@H](C)O
notes: also called compound 12
Turning to B3, the IC50 in test [1] amounted to 0.142 nM. Moreover, the “hAmylin-R funct. EC50” value in test [2] came out at 0.101 nM. For the same molecule, in test [3], the “Ratio hCT/hAmylin funct. (hCTR EC50 against hAmylin-R EC50)” value amounted to 1.8 and the “hCTR funct. EC50” value is 0.185 nM.

These data come from US20140087995A1 (published 2014).
